Data: US20240425837A1 (Novo Nordisk, published 2024)
No end group written: not given here.

Columns and labels:
Test in all cases: ELISA, biotinylated 12-mer peptide on streptavidin, 2 ug/mL FLAG-tagged VHH, anti-FLAG-HRP
[1] = molecular target: T1, FX activation peptide 12-mer GEAPDSITWKPY (SEQ ID NO:702) (human)
T1 peptide: GEAPDSITWKPY-biotin
Description: (§1) To determine whether the binding epitope of the anti-FX VHH polypeptide designated “cmpd #1” are located inside the activation peptide (AP) of human FX (SEQ ID NO:2), an ELISA assay was setup. 41 unique 12-mer peptide fragments spanning the 52 residues of the activation peptide with one amino acid spacing were immobilized in microtiter plate wells followed by incubation with the VHH polypeptide to be tested, and detection of bound ligand was performed by addition of a secondary HRP-labelled antibody.
(§2) The peptides were C-terminally conjugated to biotin and 50 μL of 1 μg/mL peptide solution was used for immobilization in discrete wells of the microtiter plate which was pre-coated with 1 μg/mL streptavidin. Each well was washed with washing buffer (10 mM Tris, 150 mM NaCl, 2.5 mM CaCl₂, 0.05% Tween 20, pH 8.60) followed by addition of 50 μL of 2 μg/mL FLAG-tagged anti-FX VHH polypeptide or IgG antibody to be tested. After 1 hour non-bound VHH polypeptide was washed off using washing buffer.
(§3) Bound anti-FX activation peptide ligand was detected by first binding a HRP-labelled secondary antibody (for FLAG-tagged VHH polypeptide: Anti-FLAG mAb M2-Peroxidase (HRP) (Sigma Aldrich, US) for 1 hour, and then adding 100 μL TMB-1 ELISA substrate (Kem-En-Tec Diagnostics, Denmark).

[2] = molecular target: T2, FX activation peptide 12-mer FDLLDFNQTQPE (SEQ ID NO:725) (human)
T2 peptide: FDLLDFNQTQPE-biotin
Description: as §1, §2, §3

[3] = molecular target: T3, FX activation peptide 12-mer KPYDAADLDPTE (SEQ ID NO:711) (human)
T3 peptide: KPYDAADLDPTE-biotin
Description: as §1, §2, §3

[4] = molecular target: T4, FX activation peptide 12-mer SVAQATSSSGEA (SEQ ID NO:693) (human)
T4 peptide: SVAQATSSSGEA-biotin
Description: as §1, §2, §3

[5] = molecular target: T5, FX activation peptide 12-mer EAPDSITWKPYD (SEQ ID NO:703) (human)
T5 peptide: EAPDSITWKPYD-biotin
Description: as §1, §2, §3

[6] = molecular target: T6, FX activation peptide 12-mer DAADLDPTENPF (SEQ ID NO:714) (human)
T6 peptide: DAADLDPTENPF-biotin
Description: as §1, §2, §3

[7] = molecular target: T7, FX activation peptide 12-mer FNQTQPERGDNN (SEQ ID NO:730) (human)
T7 peptide: FNQTQPERGDNN-biotin
Description: as §1, §2, §3

[8] = molecular target: T8, FX activation peptide 12-mer APDSITWKPYDA (SEQ ID NO:704) (human)
T8 peptide: APDSITWKPYDA-biotin
Description: as §1, §2, §3

[9] = molecular target: T9, FX activation peptide 12-mer DLDPTENPFDLL (SEQ ID NO:717) (human)
T9 peptide: DLDPTENPFDLL-biotin
Description: as §1, §2, §3

[10] = molecular target: T10, FX activation peptide 12-mer VAQATSSSGEAP (SEQ ID NO:694) (human)
T10 peptide: VAQATSSSGEAP-biotin
Description: as §1, §2, §3

[11] = molecular target: T11, FX activation peptide 12-mer PFDLLDFNQTQP (SEQ ID NO:724) (human)
T11 peptide: PFDLLDFNQTQP-biotin
Description: as §1, §2, §3

[12] = molecular target: T12, FX activation peptide 12-mer TSSSGEAPDSIT (SEQ ID NO:698) (human)
T12 peptide: TSSSGEAPDSIT-biotin
Description: as §1, §2, §3

[13] = molecular target: T13, FX activation peptide 12-mer DPTENPFDLLDF (SEQ ID NO:719) (human)
T13 peptide: DPTENPFDLLDF-biotin
Description: as §1, §2, §3

[14] = molecular target: T14, FX activation peptide 12-mer LDFNQTQPERGD (SEQ ID NO:728) (human)
T14 peptide: LDFNQTQPERGD-biotin
Description: as §1, §2, §3

[15] = molecular target: T15, FX activation peptide 12-mer NPFDLLDFNQTQ (SEQ ID NO:723) (human)
T15 peptide: NPFDLLDFNQTQ-biotin
Description: as §1, §2, §3

[16] = molecular target: T16, FX activation peptide 12-mer DLLDFNQTQPER (SEQ ID NO:726) (human)
T16 peptide: DLLDFNQTQPER-biotin
Description: as §1, §2, §3

[17] = molecular target: T17, FX activation peptide 12-mer LDPTENPFDLLD (SEQ ID NO:718) (human)
T17 peptide: LDPTENPFDLLD-biotin
Description: as §1, §2, §3

[18] = molecular target: T18, FX activation peptide 12-mer WKPYDAADLDPT (SEQ ID NO:710) (human)
T18 peptide: WKPYDAADLDPT-biotin
Description: as §1, §2, §3

B1: Cmpd #1 (monovalent anti-FX VHH polypeptide, VHH-1.1) (VHH)
VHH: EVQLVESGGGLVQPGGSLRLSCAASGSIGAFDAMGWYRQAPGKQRELVAGIMVSRGNTNYTDSVKGRFTISRDNAKNTVYLQMNSLKPEDTAVYYCKAVKRPGPGYLEVWGQGTLVTVSS
notes: no protractor; FLAG-tagged in the peptide ELISA
Question: B1 was tested. Which “ELISA signal normalized relative to the background signal” value [1] did it give?
Answer: The value was 0.93 fold of background.

Question: What about the “ELISA signal normalized relative to the background signal” value [2] of the same binder?
Answer: The value was 4.38 fold of background.

Question: What about the “ELISA signal normalized relative to the background signal” value [3] of the same binder?
Answer: Its value is 0.8 fold of background.

Question: What about the “ELISA signal normalized relative to the background signal” value [4] of the same binder?
Answer: Its value is 0.96 fold of background.

Question: What about the “ELISA signal normalized relative to the background signal” value [5] of the same binder?
Answer: Its value is 0.97 fold of background.

Question: What about the “ELISA signal normalized relative to the background signal” value [6] of the same binder?
Answer: Its value is 0.88 fold of background.

Question: What about the “ELISA signal normalized relative to the background signal” value [7] of the same binder?
Answer: The value was 1 fold of background.

Question: What about the “ELISA signal normalized relative to the background signal” value [8] of the same binder?
Answer: Its value is 1.06 fold of background.

Question: What about the “ELISA signal normalized relative to the background signal” value [9] of the same binder?
Answer: The value was 1 fold of background.

Question: What about the “ELISA signal normalized relative to the background signal” value [10] of the same binder?
Answer: The value was 1.02 fold of background.

Question: And the “ELISA signal normalized relative to the background signal” value [11]?
Answer: Its value is 4.95 fold of background.

Question: And the “ELISA signal normalized relative to the background signal” value [12]?
Answer: The value was 0.77 fold of background.

Question: What about the “ELISA signal normalized relative to the background signal” value [13] of the same binder?
Answer: Its value is 4.16 fold of background.

Question: And the “ELISA signal normalized relative to the background signal” value [14]?
Answer: Its value is 0.97 fold of background.

Question: And the “ELISA signal normalized relative to the background signal” value [15]?
Answer: The value was 3.13 fold of background.

Question: And the “ELISA signal normalized relative to the background signal” value [16]?
Answer: The value was 3.08 fold of background.

Question: What about the “ELISA signal normalized relative to the background signal” value [17] of the same binder?
Answer: The value was 1.11 fold of background.

Question: And the “ELISA signal normalized relative to the background signal” value [18]?
Answer: The value was 0.89 fold of background.
